# Data taken from patent US20080124780A1, “Hybrid immobilized catalytic system with controlled permeability” (NORTHEASTERN UNIVERSITY, priority 2002, published 2008).
# Details: not told; for Permeability Coefficient: pH 7.4
# From the text: In order to estimate the molecular weight cut-off point of the cross-linked chitosan, a model representing the chitosan layer was developed in which a thin membrane acts as a layer surrounding the alginate core. The permeability coefficients for vitamin B2 (molecular weight 376 daltons) and vitamin B12 (molecular weight 1355 daltons) representing low-molecular weight substrates, and myoglobin (molecular weight 14,000 daltons) representing a high molecular weight substrate, were studied.
# Chitosan solution was prepared by dissolving the polymer (750 kDa, 87.6% deacetylation) obtained from Pronova Biopolymers (Raymond, Wash.) in 0.1-M acetic acid to make a 0.75% (w/v) solution. Films were made by pouring 10 ml of the solution into a Petri dish (100×15 mm) and air-drying for up to 48 hours. The resulting films were dipped into a 3.0% (w/v) aqueous sodium tri-polyphosphate (Na-TPP, Sigma Chemical Company, St. Louis, Mo.) solution and kept for 1.5 hours. The cross-linked membranes were washed with distilled water once and stored in PBS at 4° C.
# Using a side-by-side diffusion apparatus, the permeability coefficients of vitamin B2, vitamin B12, and myoglobin were determined. Briefly, each apparatus was composed of a donor compartment and a receptor compartment, with a 15-ml capacity. The donor and receptor compartments were separated by the membrane.
# The donor compartment was filled with 15 ml of vitamin B2, vitamin B12, or myoglobin solution, and the receptor compartment was filled with 15 ml of phosphate buffered-saline (PBS) pH 7.4. The concentrations of vitamin B2, vitamin B12 and myoglobin were 0.1, 1.0, and 0.1 mg/ml respectively. The receptor compartment was stirred and temperature was controlled in both compartments at 37° C. by a circulating water bath. […] The absorbance values of vitamin B2 at 440 nm, vitamin B12 at 361 nm, and myoglobin at 410 nm were measured using a Shimadzu 160U UV/IV spectrophotometer (Columbia, Md.). The concentration of the diffused compound into the receptor compartment was calculated from calibration curves constructed earlier. […]
Substance,permeation through the membrane,Permeability Coefficient [cm^2/min × 10^6]
myoglobin,permeated at only a low level,0.34 ± 0.89
vitamin B12,–,7.46 ± 1.47
